# Measurements as given in publication PMC9482650, “Quantitative fragmentomics allow affinity mapping of interactomes” (Nature Communications, 2022).
# T1: HTRA3, P83110
# T1 sequence (P83110 354-453, limits assumed, looked up): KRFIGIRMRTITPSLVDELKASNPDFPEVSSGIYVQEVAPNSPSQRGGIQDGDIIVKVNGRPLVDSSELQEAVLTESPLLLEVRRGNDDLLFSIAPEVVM
# T2: APBA3_1, O96018
# T2 sequence (O96018 389-490, limits assumed, looked up): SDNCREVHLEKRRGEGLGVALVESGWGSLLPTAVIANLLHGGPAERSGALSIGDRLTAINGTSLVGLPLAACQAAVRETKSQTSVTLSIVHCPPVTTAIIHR
# T3: LIN7C, Q9NUP9
# T3 sequence (Q9NUP9 88-185, limits assumed, looked up): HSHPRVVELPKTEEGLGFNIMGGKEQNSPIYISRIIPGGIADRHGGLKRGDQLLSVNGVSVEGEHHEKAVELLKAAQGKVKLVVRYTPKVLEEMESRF
# T4: PDZD7_3, Q9H5P4
# T4 sequence (Q9H5P4 857-944, limits assumed, looked up): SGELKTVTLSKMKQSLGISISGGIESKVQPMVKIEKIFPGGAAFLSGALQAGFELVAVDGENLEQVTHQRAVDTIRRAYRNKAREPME
# T5: TX1BP3, O14907
# T5 sequence (O14907 10-122, limits assumed, looked up): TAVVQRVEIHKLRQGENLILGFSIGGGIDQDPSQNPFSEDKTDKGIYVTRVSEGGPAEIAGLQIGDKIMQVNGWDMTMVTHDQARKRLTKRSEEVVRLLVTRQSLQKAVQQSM
# T6: PTPN13_1, Q12923
# T6 sequence (Q12923 1088-1188, limits assumed, looked up): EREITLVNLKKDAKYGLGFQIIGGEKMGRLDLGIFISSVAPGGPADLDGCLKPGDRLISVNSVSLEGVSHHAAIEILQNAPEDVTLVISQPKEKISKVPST
# T7: SNTA1, Q13424
# T7 sequence (Q13424 82-180, limits assumed, looked up): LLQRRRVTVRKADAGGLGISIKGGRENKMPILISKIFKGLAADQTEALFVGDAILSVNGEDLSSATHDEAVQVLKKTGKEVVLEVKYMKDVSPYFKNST
# T8: RHPN1, Q8TCX5
# T8 sequence (Q8TCX5 508-602, limits assumed, looked up): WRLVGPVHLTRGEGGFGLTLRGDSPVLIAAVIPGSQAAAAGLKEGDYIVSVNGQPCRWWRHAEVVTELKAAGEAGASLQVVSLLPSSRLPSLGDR
# T9: FRMPD1, Q5SYB0
# T9 sequence (Q5SYB0 52-145, limits assumed, looked up): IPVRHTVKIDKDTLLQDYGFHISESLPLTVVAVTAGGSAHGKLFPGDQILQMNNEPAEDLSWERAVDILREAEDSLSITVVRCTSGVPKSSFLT
# T10: SNTG2, Q9NY99
# T10 sequence (Q9NY99 68-166, limits assumed, looked up): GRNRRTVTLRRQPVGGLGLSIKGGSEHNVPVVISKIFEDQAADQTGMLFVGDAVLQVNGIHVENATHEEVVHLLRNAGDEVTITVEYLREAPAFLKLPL
# T11: DVL3, Q92997
# T11 sequence (Q92997 244-331, limits assumed, looked up): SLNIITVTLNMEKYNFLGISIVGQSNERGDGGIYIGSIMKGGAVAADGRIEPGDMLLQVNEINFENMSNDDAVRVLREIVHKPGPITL
# T12: TJP3_3, O95049
# T12 sequence (O95049 375-456, limits assumed, looked up): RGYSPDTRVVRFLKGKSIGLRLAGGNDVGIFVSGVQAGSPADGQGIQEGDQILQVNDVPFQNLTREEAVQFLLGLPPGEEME
# Biological target: T1, HTRA3, P83110
# Assay: holdup assay
# Set-up: key: below the threshold = too weak to quantify, mostly under pKd 3.1 to 4
# Conditions: plain residues with an end cap or a label only (N-terminal biotin on a linker: ado-ado)
row,pKd,Binder
1,below the threshold,"VISERNSTTV [C3AR1, Q16581]"

# Biological target: FRMPD3, Q5JV73
# Sequence (Q5JV73 12-100): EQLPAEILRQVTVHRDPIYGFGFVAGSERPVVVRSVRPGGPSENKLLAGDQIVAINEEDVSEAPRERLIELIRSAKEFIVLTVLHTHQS
# Assay: holdup assay
# Set-up: key: below the threshold = too weak to quantify, mostly under pKd 3.1 to 4
# Conditions: plain residues with an end cap or a label only (N-terminal biotin on a linker: ado-ado)
row,pKd,Binder
1,below the threshold,"VISERNSTTV [C3AR1, Q16581]"

# Biological target: T2, APBA3_1, O96018
# Assay: holdup assay
# Set-up: key: below the threshold = too weak to quantify, mostly under pKd 3.1 to 4
# Conditions: plain residues with an end cap or a label only (N-terminal biotin on a linker: ado-ado)
row,pKd,Binder
1,below the threshold,"VISERNSTTV [C3AR1, Q16581]"

# Biological target: ARHGEF12, Q9NZN5-2
# Sequence (Q9NZN5 other isoform, or with tags, fused parts or gaps): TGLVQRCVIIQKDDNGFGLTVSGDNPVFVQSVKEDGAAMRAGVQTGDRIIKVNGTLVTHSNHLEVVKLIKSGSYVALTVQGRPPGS
# Assay: holdup assay
# Set-up: key: below the threshold = too weak to quantify, mostly under pKd 3.1 to 4
# Conditions: plain residues with an end cap or a label only (N-terminal biotin on a linker: ado-ado)
row,pKd,Binder
1,4.33,"VISERNSTTV [C3AR1, Q16581]"

# Biological target: GRIP2_3, Q9C0E4
# Sequence (Q9C0E4 238-339): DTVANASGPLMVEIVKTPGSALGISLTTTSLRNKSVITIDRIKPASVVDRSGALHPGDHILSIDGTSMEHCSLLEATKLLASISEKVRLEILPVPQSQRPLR
# Assay: holdup assay
# Set-up: key: below the threshold = too weak to quantify, mostly under pKd 3.1 to 4
# Conditions: plain residues with an end cap or a label only (N-terminal biotin on a linker: ado-ado)
row,pKd,Binder
1,below the threshold,"VISERNSTTV [C3AR1, Q16581]"

# Biological target: MAGI2_4, Q86UL8
# Sequence (Q86UL8 772-865): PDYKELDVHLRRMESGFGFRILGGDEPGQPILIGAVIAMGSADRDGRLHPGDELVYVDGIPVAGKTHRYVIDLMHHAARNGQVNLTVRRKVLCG
# Assay: holdup assay
# Set-up: key: below the threshold = too weak to quantify, mostly under pKd 3.1 to 4
# Conditions: plain residues with an end cap or a label only (N-terminal biotin on a linker: ado-ado)
row,pKd,Binder
1,4.44,"VISERNSTTV [C3AR1, Q16581]"

# Biological target: DLG2_3, Q15700
# Assay: holdup assay
# Set-up: key: below the threshold = too weak to quantify, mostly under pKd 3.1 to 4
# Conditions: plain residues with an end cap or a label only (N-terminal biotin on a linker: ado-ado)
row,pKd,Binder
1,3.8,"VISERNSTTV [C3AR1, Q16581]"

# Biological target: T3, LIN7C, Q9NUP9
# Assay: holdup assay
# Set-up: key: below the threshold = too weak to quantify, mostly under pKd 3.1 to 4
# Conditions: plain residues with an end cap or a label only (N-terminal biotin on a linker: ado-ado)
row,pKd,Binder
1,below the threshold,"VISERNSTTV [C3AR1, Q16581]"

# Biological target: T4, PDZD7_3, Q9H5P4
# Assay: holdup assay
# Set-up: key: below the threshold = too weak to quantify, mostly under pKd 3.1 to 4
# Conditions: plain residues with an end cap or a label only (N-terminal biotin on a linker: ado-ado)
row,pKd,Binder
1,4.41,"VISERNSTTV [C3AR1, Q16581]"

# Biological target: FRMPD2_2, Q68DX3
# Sequence (Q68DX3 944-1038): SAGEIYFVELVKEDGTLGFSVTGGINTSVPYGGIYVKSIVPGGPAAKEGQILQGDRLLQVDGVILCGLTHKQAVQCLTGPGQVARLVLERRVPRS
# Assay: holdup assay
# Set-up: key: below the threshold = too weak to quantify, mostly under pKd 3.1 to 4
# Conditions: plain residues with an end cap or a label only (N-terminal biotin on a linker: ado-ado)
row,pKd,Binder
1,below the threshold,"VISERNSTTV [C3AR1, Q16581]"

# Biological target: PTPN3, P26045
# Sequence (P26045 505-587): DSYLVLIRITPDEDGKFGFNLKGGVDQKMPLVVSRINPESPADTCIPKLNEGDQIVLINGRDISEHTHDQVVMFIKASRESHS
# Assay: holdup assay
# Set-up: key: below the threshold = too weak to quantify, mostly under pKd 3.1 to 4
# Conditions: plain residues with an end cap or a label only (N-terminal biotin on a linker: ado-ado)
row,pKd,Binder
1,4.01,"VISERNSTTV [C3AR1, Q16581]"

# Biological target: T5, TX1BP3, O14907
# Assay: holdup assay
# Set-up: key: below the threshold = too weak to quantify, mostly under pKd 3.1 to 4
# Conditions: plain residues with an end cap or a label only (N-terminal biotin on a linker: ado-ado)
row,pKd,Binder
1,below the threshold,"VISERNSTTV [C3AR1, Q16581]"

# Biological target: FRMPD2_1, Q68DX3
# Sequence (Q68DX3 770-861): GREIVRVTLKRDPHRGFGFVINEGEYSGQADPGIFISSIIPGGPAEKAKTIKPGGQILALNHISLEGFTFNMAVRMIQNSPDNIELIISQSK
# Assay: holdup assay
# Set-up: key: below the threshold = too weak to quantify, mostly under pKd 3.1 to 4
# Conditions: plain residues with an end cap or a label only (N-terminal biotin on a linker: ado-ado)
row,pKd,Binder
1,below the threshold,"VISERNSTTV [C3AR1, Q16581]"

# Biological target: T6, PTPN13_1, Q12923
# Assay: holdup assay
# Set-up: key: below the threshold = too weak to quantify, mostly under pKd 3.1 to 4
# Conditions: plain residues with an end cap or a label only (N-terminal biotin on a linker: ado-ado)
row,pKd,Binder
1,below the threshold,"VISERNSTTV [C3AR1, Q16581]"

# Biological target: GORASP1, Q9BQQ3
# Sequence (Q9BQQ3 1-208): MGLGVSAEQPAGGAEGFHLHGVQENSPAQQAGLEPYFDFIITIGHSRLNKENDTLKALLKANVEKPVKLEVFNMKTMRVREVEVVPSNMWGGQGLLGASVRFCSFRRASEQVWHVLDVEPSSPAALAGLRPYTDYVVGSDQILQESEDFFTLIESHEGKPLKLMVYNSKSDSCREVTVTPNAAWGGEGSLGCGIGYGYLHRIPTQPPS
# Assay: holdup assay
# Set-up: key: below the threshold = too weak to quantify, mostly under pKd 3.1 to 4
# Conditions: plain residues with an end cap or a label only (N-terminal biotin on a linker: ado-ado)
row,pKd,Binder
1,below the threshold,"VISERNSTTV [C3AR1, Q16581]"

# Biological target: T7, SNTA1, Q13424
# Assay: holdup assay
# Set-up: key: below the threshold = too weak to quantify, mostly under pKd 3.1 to 4
# Conditions: plain residues with an end cap or a label only (N-terminal biotin on a linker: ado-ado)
row,pKd,Binder
1,3.79,"VISERNSTTV [C3AR1, Q16581]"

# Biological target: PDZRN4_1, Q6ZMN7
# Sequence (Q6ZMN7 213-318): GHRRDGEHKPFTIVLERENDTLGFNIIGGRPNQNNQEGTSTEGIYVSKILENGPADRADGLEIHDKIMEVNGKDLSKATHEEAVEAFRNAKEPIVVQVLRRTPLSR
# Assay: holdup assay
# Set-up: key: below the threshold = too weak to quantify, mostly under pKd 3.1 to 4
# Conditions: plain residues with an end cap or a label only (N-terminal biotin on a linker: ado-ado)
row,pKd,Binder
1,3.63,"VISERNSTTV [C3AR1, Q16581]"

# Biological target: MAST1, Q9Y2H9
# Sequence (Q9Y2H9 962-1065): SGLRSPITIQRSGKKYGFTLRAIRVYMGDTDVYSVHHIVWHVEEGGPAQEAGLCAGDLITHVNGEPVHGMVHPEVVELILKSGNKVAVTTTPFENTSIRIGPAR
# Assay: holdup assay
# Set-up: key: below the threshold = too weak to quantify, mostly under pKd 3.1 to 4
# Conditions: plain residues with an end cap or a label only (N-terminal biotin on a linker: ado-ado)
row,pKd,Binder
1,3.74,"VISERNSTTV [C3AR1, Q16581]"

# Biological target: T8, RHPN1, Q8TCX5
# Assay: holdup assay
# Set-up: key: below the threshold = too weak to quantify, mostly under pKd 3.1 to 4
# Conditions: plain residues with an end cap or a label only (N-terminal biotin on a linker: ado-ado)
row,pKd,Binder
1,4.16,"VISERNSTTV [C3AR1, Q16581]"

# Biological target: T9, FRMPD1, Q5SYB0
# Assay: holdup assay
# Set-up: key: below the threshold = too weak to quantify, mostly under pKd 3.1 to 4
# Conditions: plain residues with an end cap or a label only (N-terminal biotin on a linker: ado-ado)
row,pKd,Binder
1,below the threshold,"VISERNSTTV [C3AR1, Q16581]"

# Biological target: T10, SNTG2, Q9NY99
# Assay: holdup assay
# Set-up: key: below the threshold = too weak to quantify, mostly under pKd 3.1 to 4
# Conditions: plain residues with an end cap or a label only (N-terminal biotin on a linker: ado-ado)
row,pKd,Binder
1,3.61,"VISERNSTTV [C3AR1, Q16581]"

# Biological target: T11, DVL3, Q92997
# Assay: holdup assay
# Set-up: key: below the threshold = too weak to quantify, mostly under pKd 3.1 to 4
# Conditions: plain residues with an end cap or a label only (N-terminal biotin on a linker: ado-ado)
row,pKd,Binder
1,below the threshold,"VISERNSTTV [C3AR1, Q16581]"

# Biological target: Inadl_4, Q8NI35
# Sequence (Q8NI35 547-651): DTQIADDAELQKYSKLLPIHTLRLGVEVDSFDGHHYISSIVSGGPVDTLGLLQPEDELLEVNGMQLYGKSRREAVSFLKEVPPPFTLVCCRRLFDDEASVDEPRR
# Assay: holdup assay
# Set-up: key: below the threshold = too weak to quantify, mostly under pKd 3.1 to 4
# Conditions: plain residues with an end cap or a label only (N-terminal biotin on a linker: ado-ado)
row,pKd,Binder
1,below the threshold,"VISERNSTTV [C3AR1, Q16581]"

# Biological target: T12, TJP3_3, O95049
# Assay: holdup assay
# Set-up: key: below the threshold = too weak to quantify, mostly under pKd 3.1 to 4
# Conditions: plain residues with an end cap or a label only (N-terminal biotin on a linker: ado-ado)
row,pKd,Binder
1,below the threshold,"VISERNSTTV [C3AR1, Q16581]"

# Biological target: Inadl_5, Q8NI35
# Sequence (Q8NI35 673-780): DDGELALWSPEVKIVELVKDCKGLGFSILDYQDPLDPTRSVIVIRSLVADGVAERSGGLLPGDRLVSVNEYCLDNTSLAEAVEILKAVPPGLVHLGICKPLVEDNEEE
# Assay: holdup assay
# Set-up: key: below the threshold = too weak to quantify, mostly under pKd 3.1 to 4
# Conditions: plain residues with an end cap or a label only (N-terminal biotin on a linker: ado-ado)
row,pKd,Binder
1,3.65,"VISERNSTTV [C3AR1, Q16581]"
